The domain aggregation screens of Martell et al. (2025)

Assay: soluble fraction after stress (log2 fold change); higher = more stays soluble; pooled small domains, quantitative proteomics
Conditions: stress: pH 4
Method in brief: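 Values are log2 fold changes, and higher ones mean more of the domain stayed soluble. Each fold change reflects the soluble amount of a domain after acid stress and is taken as a measure of aggregation propensity. The stress was pH 4, applied to pooled custom libraries of small protein domains analysed by high-throughput quantitative proteomics.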

Row | Sequence | soluble fraction (log2)
1 | HMDQFMLQSAWLRAVQHVMKHTDDVGTQFAEEARRMHYGEADERPIRGQATSDEARALHDEGIEVMALPI | -0.192
2 | HMDQILIHLKEGIDVTDVQPMLKALDLNVRMFNRDKNIIVISVLNRELDAIPQTIAALRPWEELFDSA | -0.184
3 | HMDQNVSVPKLAGLQVEEANAILKSKGLHIEIIDSIYQKDAVPGAIIEQVPEENSKVKKGRAIYVSVYAK | 0.0139
4 | HMDQVYYDLKSLIELLPADQMEVLKMRYFEELSFKKIAQKIDVSINTALGRMRYALINLRALSKKHHID | -1.02
5 | HMDRDMGSMTDFENVRDAYLTGKVWNVGDLIEANGITGIIIRKGTNYVSYNDGDGKVHKAWLHDITL | -0.98
6 | HMDREILWTNYVAARKQEFIASSIDTIGAEYLDNRRFWDTQFEREWTIIAERLASGFGLTDDILSIVGSDF | -2.71
7 | HMDRETEEYELIRAKLEWLYQKQTGTIRNQTAKILHHLEIAKEEGNYYLYLKIKEEAKQWLVQASMYLD | -0.725
8 | HMDRGDVTREALIKAAIEIFGRDGFHAASTRAIAERAGANQALIGYHFRGKLGLYHATFEYIIGKI | -0.474
9 | HMDRMINYSPIVAKVPQDDYTTKVYNIPIYSELTVVDKISEPEPLIAPIYRFKYITPEDEEIEFDIPV | -0.39
10 | HMDRMMQPETWGRVYQWITDDPQVPDREEVLTLIKYHYGDFGKLMKLLHRLNEGKAWTYLSEHIFPRM | -0.698
11 | HMDRNEFVSTLRAALTGAVSPAIVEDNVRYYQNYISQEIASGKSEKEVLDGLGDPRLIARTIIDT | 0.14
12 | HMDRNIVYSDFIRSVNQGQVSEVLVQGDNIRGRYLNGKVFQTFAPKDPSLISTLRNKGVRISAEPA | -0.022
13 | HMDRRSTTLQDIYTRIDAEEISEALELIPKLGEIEFEQNRAEIAEAAGVRPAVLDKLRKQAAKQENNKK | -0.216
14 | HMDRSAQVLFLEHARSRLPQRIQWAEELAELLSIGIDSAYRRIRGETALTFNEAVSVSRKYDISLDYLFK | -1.4
15 | HMDRSKREKEQQELMLKVQQIFDDNQQRFGAEKIRTVLAQNGVRVSVKRVSAIMQELNLRSIR | 0.169
16 | HMDRVMPVPEALIGMRFDIAVSRMLGVSRSQAAAYIDRGQVSIAGRGSQRSAQKSEKLVQGDSIEVAIA | 0.186
17 | HMDRWSLLTLTTLAGGTLRFTELKRAIGDISQRMLAQTLRTLEREGYVSRKVYATIPPKVEYRLTALGQSL | ≥ 0.43
18 | HMDRYAVRAEELAAALAQYHRHVGVYPENLEDLIAPTGPRGYRGPYLSELPTNPSTSKPDWGYDPATGRVS | 0.159
19 | HMDSAFVSDIRDAFDEAGVDSYRFFGTHSFKRGGVQLYRLLGVSDQEIKERGHWQTFSAYFAYVQA | -0.303
20 | HMDSESGAIIRRAVAQLAPKFRSTIVLRLIEGYSTEETAQILQLPVGTVLSRLARAKVQLMNLLTPYKEL | -0.0277
21 | HMDSIDIDAETKSLGPNAPQIIKGIKEWGQGLVAKGVWSDQDFEEFKVFAATANGINALNKVRKFY | -0.192
22 | HMDSIDVQQKKLLTDIELGNIEGIKLFLKRHNNTINFLTIKGFHPLVYAVRNNNMEIVNLFLTT | 0.159
23 | HMDSIGTQIRKLREEAEMPLRKLSALLDIDQSTLSKIERDERRANTQMIEQIAKIFKVNKEQLLVA | -1.98
24 | HMDSKPNDLLFVYVSQLIRSLTLNSSKKDSELADELEVSISQIRIWLKKLINEQLIVKESKPVKYRWKG | -0.327
25 | HMDSLARKTVNGAEFYIYPVESAEGFYSLRRKFGVSQEEVIKYNPSAQNGLKSGQVLLIPVT | 0.125
26 | HMDSLQDFAYEEIKKRIQNGEYAPGTKLNTQEISDSLGISRSPVLAAINRLIALGLVEATPRKGTTVA | -0.0359

Row | Sequence | soluble fraction (log2)
27 | HMDSLSGQQGRVLEEINGFLQTGKVLLNGMEWSAVSKQPEDILPVDTEVVVVRVEGAHLVVKKA | -0.488
28 | HMDSPRITMDQLRIGLYVYLDLTWFQHPFAFSHFKINSEDQIKTILGLGLKSVRYDPALSDPV | -0.645
29 | HMDSQSVFADLVKSLSQKIASIPVWFEYTKNEQYDLISSYVSAKLKDLGVEFSQEEKEKFITMFMNS | -0.34
30 | HMDSRQIIAALQARYADETGITALKIKFNNVLGYFVDVPARYGDPLMKPPLSETFIHRQTLASNVRF | -0.0558
31 | HMDSSITLMRMYIPKGHNWENKLISDVSMPTNSLALMIKRNGTTIIPKGDTMILAKDTLILSVPSYEPS | -1.86
32 | HMDSSNLSLIAGVGPTIEKKLRAAGITSWEQIAAWTEADVAKYDEELNLRGRITRDEWIEQAKELLAGKPP | 0.309
33 | HMDSTLDLVATQGGRLDQVLAEMIPEHSRNRLQHWIKAGRVLVDGQPVLEPKHKIYGGEDLAVRVD | 0.123
34 | HMDSVSAVRTTHLNSYVLLLEKDGMAAATISRYIASMKGFFEYLFREHMIEEDPAFTLKPPKV | 0.0461
35 | HMDSVVPNVVGMTAEKANKALTDAGLNVKITGATIGSGAVVHSQSIPAGTVTSKGTVVSIEMRFAAAEGD | -0.193
36 | HMDSYSILGIEKESSMEDIEKAYIDKISKIKKEVKNEKNAAAFEAVLTKAYNDILSQKENISEEQELAE | 0.22
37 | HMDTAGSVAIVSKSVIENGFGEIKYKGTYFKAQSDVYIPKDQMVKVIGKGDEQGSFLIVEKLN | -0.0172
38 | HMDTIASESVRNRIEELISNENPKKPLSDQALVKMLQEFDIKIARRTVAKYREMLKIPPSSKRKQV | 0.0429
39 | HMDTIGSKVLAFLAGNLLDPTPFNYRFGYLYLNRTSKVIVEETDTYIDSGMRMTQEAVAEIMQKFAQ | -2.74
40 | HMDTITMAGERYAVSDLEKVSGDIFEKAFGFEIDPKTADAKDVLPTMPKSDVDLFKKLSGIKP | -0.0953
41 | HMDTIYPFNPNFIDDYKGYVLGLNTNEIDRLLKYRSKGNWINSAEDFKKVTGIDDALLNKLSKSFKFPDWL | -0.991
42 | HMDTLRPLGRYQNVHLTKQELTALQSEFSDWSERIERLSSYMASTGRKYQNHAATIRLWAEKDK | 0.161
43 | HMDTMINLIGLNLKKAKKELSNLGVNVKKVRYKKSSVYDEGVVIDQSIEAGRNIKNGDFITITVSSGKA | -0.0745
44 | HMDTNEPFAQLQLRFTDPIQYDYEVIRPVVLFSQSVTDRSDETEMPRTTVREKARQFVTEGMLGLVDK | -0.216
45 | HMDTNTIIGLRIKALRTEKKYTLKYLSENSGLSIGFLSQLERGMTSVAIDSLDKISKVLDVELSSFFN | -0.65
46 | HMDTPMQEAVLQRLRDKVAQAAAGSKLPTVRQLIADYGVGQHVIQAALEKLRTEGLITSHVGKGTFVG | 0.142
47 | HMDTPMYMAIIEEVRFQIANEILKEGEQLPSIRNLAKTLKVSVITVKRAYKELEEAGYITTIPAKGSKVS | -0.167
48 | HMDTQKYDLNDDGRFDVQDVTYLQIKIAGDGELTDNQKKIADYNNDGKIDVQDVTSAQMLIS | -0.724
49 | HMDTSADEVKQLIASFVEQEDKRKPLSDQKIVELLAEKEQKISRRTVAKYRDALNIPSSSKRKRF | -0.141
50 | HMDTSISHLVGRTGEAVTDLRPAGTVMIDGELYDARATEGFIEKGEIVKAIKYQYGQLNVRRVSK | 0.149
51 | HMDTVSYSTLLRDIDAKEIKQLDLVPGRREVRVQYNDGRRVTVPVFANDNQILRAAESSGTPLTVV | 0.0175
52 | HMDVADITGTRKAAILLLTMDEELSKELLKEFERHEIEAIGKEIANIKYIPENIVKQVHSEFLKNINKS | -0.752

Row | Sequence | soluble fraction (log2)
53 | HMDVFTAKTASHIQELREKLGQQAVFGRSDVQNALGLKATRSSALLREMAEHGIIEPVTGYGKGRYHFRS | 0.361
54 | HMDVIDDAQAMEIALEDAGLSMDDLDRYELELHTKRSELVYSIELKSGTEEYEYDLRAADGTILKRDTDF | -0.799
55 | HMDVLDVADNVNDDMSFADAFAAARSEVGAGGIFYWHGKAYGTYYENEWAGMSEEDKADYWDAVARTTS | -0.779
56 | HMDVLSPEEWIEFRTAYNNNRYISQYGSKGATIEDDYATRLAMIGGKESYYFLNDPRWTEPGYGNLK | -1.45
57 | HMDVMNEIQQKAFDIYIQSASLKNDFTPISERALAKKLHDMGLKSSMSAIGRWKKKFGWVQSLQNKVTLA | -0.183
58 | HMDVNKDLLGETLEKAKSYKADDWRKASYEALQKAIVEAEAVYKDEEADQVAVDRKVAALNKAINNLEAKG | 0.241
59 | HMDVNPETLSYYIERADISLDELRTSVKGIDLFLTGEKQPTFNQISNIAKKLNIPTGLLLINKPIEI | -1.37
60 | HMDVNSRIRQFLKKMKITVQTFESSIGKTNGYIAHTKSPTAGVLAEIAKVYPDLNLDWLITGEGEMLKN | -0.0635
61 | HMDVPTSSITEVKKSPMDVFAQARKAETGVYIFNREKIAGVMLTKEQYEALVEELNTLRDTL | -1.24
62 | HMDVQEILGALSPDEKAAIGQLTSGEKHIDQIIAATRLPAARITSALTLLQIKGYVRALPGKRFSLTEKQ | ≥ 0.43
63 | HMDVQPTTTKTMFYTVQQGETLFSISRKFGISVEEITKKNPLASSGLTVGMELLLPEKKEINSTIQS | -0.0195
64 | HMDVSEITTIKWIIKETKLGINEKILIYVNSKNFTVETLMEGFEIMSKYLVENVSSDKIVYIKN | 0.22
65 | HMDVTDRLARRLQGLRSAQGLSLDALAARSGVSRSNISLIERGQSSPTATVLDKLSAALGVTLAALFEEP | 0.00664
66 | HMDWVAYGAELRRRRLLAGWTVAELSRRINLSGMTIHQIEKGRGRLRPSELTLAKLAAALGMPTP | ≥ 0.43
67 | HMDYEVPEELEEKFSENPQFKEAFDNLTPGRQHQYIYHISQAKRSQTRINRIEKYYEHILNGKGMQD | 0.416
68 | HMDYGTATASAILYLEKIDPENPYLLLAKDTITTNPKMSVNFALKGIIESKKGEKEENLNKALEIMSSL | 0.0949
69 | HMDYKSNLQEMVQTTKKSVTYELVKEEGPAHDRTFTMNVIVDGIVLGTGTAKSKKEAEQEAAHQALEKKA | -0.0453
70 | HMDYTGIPQSLLDLMKKDNIMPMQIQRAVAERNYYPVDTPISNYDPMFIEAKLVGAWDQVLNVISHLDLP | -1.51
71 | HMDYTPIEVKDLPQAIQDALTKNFSEYTVKSAAYQEDEDGVKIYQVTVVDEEGTEANIFFTEKGE | 0.00729
72 | HMEADERRNEILDAAETLITEKGYSKTTIIDILNQVGIAKGTFYYYFKSKEEVMDAIIERFI | -1.33
73 | HMEAEGLDFAPMPGEIGKKLWQEVSKEAWAGWLKHQTMLVNENRLSFVDPAARKYLTEQTEAYFFG | -0.248
74 | HMEAEMLYQVKVKITNLVIRSGAGAIYPIVKRYASGVLPIYEEKNGYGKIAVGQWISLSPEFVERVD | -0.0106
75 | HMEAEPRLLDLPPGTRAGRLDKVLAQLLPEHSRSRLQGWIERGGVLVNGKEASVRQVVGPGDQLTVWEEAA | 0.0341
76 | HMEAEQLEAIRSALQQLSDMNRTVFNLHVVDGYKHEEIAAMLNITTGTSKAHLHRAKKRLRELID | -0.745
